Here are results for 1 molecule from patent US11040083B2, “Polypeptides comprising vinculin binding sites for the treatment of proliferation and/or adhesion related diseases” (PARIS SCIENCES ET LETTRES—QUARTIER LATIN, priority 2015, dated 2021).

Data set [1] has as its system cell. The settings on record: upon cell transfection; cited from earlier work.
In data set [2] the test system is HeLa cells. The data set can be described thus: Talin coat structures at Shigella entry foci. Format: cell-based. The following applies: talin-GFP transfected cells, ipaA mutant strain complemented with the derivative, 30 minutes at 37° C. On the procedure: FIG. 18 is a graph showing the role of IpaA VBSs in talin and vinculin recruitment during Shigella invasion. HeLa cells were transfected with talin-GFP and challenged with Shigella strains for 30 minutes at 37° C. Cells challenged with the IpaA mutant strain complemented with full length IpaA (FL), vector alone (2.1), IpaAΔVBS3 and IpaAΔVBS1-2. The arrows point at talin coat structures surrounding invading bacteria. Scale bar=5 μm. Average percentage of actin foci forming talin-coat structures induced by the indicated bacterial strain±SD (Exp. Procedures). For each samples, n>35 foci in at least three independent experiments. Chi-squared test with post-hoc comparison (FDR correction for p-value).
HeLa cells were seeded at 1×10^5 cells in 33 mm-diameter wells in diameter containing a sterile coverslip. One day after and immediately before infection, cells were washed three times with EM medium at 22° C. Different Shigella bacterial strains were grown in TCS medium to exponential phase, washed in EM medium and diluted to OD600 nm=0.1. The IpaA Shigella strains were incubated for 10 minutes in the presence of 10 μg/mL polylysine, washed and used to infect HeLa cell line prepared as described before. Infected cell cultures were incubated for 15 minutes at 22° C. to allow adhesion of the bacteria, and then transferred at 37° C. for 5, 10, 12, 15 and 30 minutes. […]

B1: full length IpaA: Shigella type III effector IpaA, full length (protein, listed as Shigella flexneri)
chain: MHNVNNTQAPTFLYKATSPSSTEYSELKSKISDIHSSQTSLKTPASVSEKENFATSFNQKCLDFLFSSSGKEDVLRSIYSNSMNAYAKSEILEFSNVLYSLVHQNGLNFENEKGLQKIVAQYSELIIKDKLSQDSAFGPWSAKNKKLHQLRQNIEHRLALLAQQHTSGEALSLGQKLLNTEVSSFIKNNILAELKLSNETVSSLKLDDLVDAQAKLAFDSLRNQRKNTIDSKGFGIGKLSRDLNTVAVFPELLRKVLNDILEDIKDSHPIQDGLPTPPEDMPDGGPTPGANEKTSQPVIHYHINNDNRTYDNRVFDNRVYDNSYHENPENDAQSPTSQTNDLLSRNGNSLLNPQRALVQKVTSVLPHSISDTVQTFANNSALEKVFNHTPDNSDGIGSDLLTTSSQERSANNSLSRGHRPLNIQNSSTTPPLHPEGVTSSNDNSSDTTKSSASLSHRVASQINKFNSNTDSKVLQTDFLSRNGDTYLTRETIFEASKKVTNSLSNLISLIGTKSGTQERELQEKSKDITKSTTEHRINNKLKVTDANIRNYVTETNADTIDKNHAIYEKAKEVSSALSKVLSKIDDTSAELLTDDISDLKNNNDITAENNNIYKAAKDVTTSLSKVLKNINKD
modifications: IpaA (1-633)
Take B1: the cytotoxicity entry in data set [1] is “cytotoxic”. In addition, the “percentage of foci forming talin coat structures” value in data set [2] is given as 52±6.7%.
